{
  "source": "paper PMC8009439",
  "key": {"[1]": {"molecular_target": "pyruvate kinase isoform M2 (PKM2), endogenous in immortalized hepatocytes (human (endogenous in NeHepLxHT)) (UniProt P14618)", "experiment": "cross-linking; cell lysate treated with 0.1% glutaraldehyde for 20 minutes at 25°C, stopped with 50 mM Tris pH 8.0, SDS-PAGE and western blot for PKM2; control and LHBS-expressing immortalized hepatocytes, HuH-7 and HepG2 cells infected with Ad-HBV-KO or Ad-HBV-WT"}, "[2]": {"molecular_target": "pyruvate kinase isoform M2 (PKM2), endogenous in immortalized hepatocytes (human (endogenous in NeHepLxHT)) (UniProt P14618)", "experiment": "glycerol density gradient centrifugation"}},
  "data": [
    {"substance": "pyruvate kinase isoform M2 (PKM2), endogenous in immortalized hepatocytes, P14618 1-531 (enzyme; other documents disagree on this pair)", "values": [
      {"measurement": "stoichiometry N", "setting": "[1]", "value": 2},
      {"measurement": "stoichiometry N", "setting": "[2]", "value": 2}
    ]}
  ]
}
